The supplement of paper PMC9170038

System: MS2 coat protein
Test: apparent KD of MS2 coat protein; designed switch direction (-1 OFF switch, 1 ON switch): -1; higher = weaker reporter binding
In short: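 The apparent KD reported per design is the median over clusters of curve fits to normalised cluster fluorescence. The RNA switches were transcribed on Illumina chips by stalled E. coli RNA polymerase. SNAP-549-labelled MS2 coat protein was titrated from 0.7 or 1.5 nM, doubling up to 3 µM, in Tris-HCl pH 7.5 buffer containing KCl, MgCl2, BSA, DTT, tRNA and Tween-20, with no input, 200 uM small-molecule ligand, or an oligonucleotide input.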

[1] = Eterna round: R95, input ligand: FMN 200 uM
[2] = Eterna round: R95, input ligand: microRNA oligo, concentration not stated
[3] = Eterna round: R95, input ligand: none
[4] = input ligand: microRNA oligo, concentration not stated

| Sequence | apparent KD of MS2 coat protein [1] [nM] | apparent KD of MS2 coat protein [2] [nM] | apparent KD of MS2 coat protein [3] [nM] | apparent KD of MS2 coat protein (input ligand: FMN 200 uM) [nM] | apparent KD of MS2 coat protein (input ligand: none) [nM] | apparent KD of MS2 coat protein [4] [nM] |
| --- | --- | --- | --- | --- | --- | --- |
| GAUAGAGAGCAGGAUAUCUUAGAUAUGUAAUAUAGAGAAGGGCUCACAUGAGGAUCACCCAUGUGGUCCUAGAU [JL Dibiri mod 14] (puzzle: Exclusion 6) | 94 | 15.9 | 16.1 |  |  |  |
| GAUCAACAUGAGGAUCACCCAUGUGAGGAUAUGAUACUAUGUACUUCGGUACAUAGUAUCAGAAGGCAUGUGAA [Ex1-3: 77] (puzzle: Exclusion 1) |  | 80.1 |  |  |  |  |
| GAUCAACAUGAGGAUCACCCAUGUGAGGAUAUGUAUCAUAGAUCUUCGGAUCUAUGAUACAGAAGGCAUGUGGA [Ex1-3: 100c] (puzzle: Exclusion 1) |  | 144 |  |  |  |  |
| GAUCACUGAGGAUAUACACAGAUACAAAGUAUCUGACGGUGACAUGAGGAUCACCCAUGUAGAAGGCAGAGGUC [Omei Ex2 B2] (Eterna round: R97, puzzle: Exclusion 2) |  |  |  | 360 | 696 |  |
| GAUCAGUAAGGAUAUACAUGAGGAUCACCCAUGUGGAUGGCCGCGCAUUUCCAUUCAGGUAGAAGGUACUGAGU [Eternabot (L1) Solution 94] (Eterna round: R97, puzzle: Exclusion 3) |  |  |  | 54.3 | 36.8 |  |
| GAUCGCCGUGUCAGGAUAUCUUGUGUACCCACGUUAGAGAAGGGACAUGAGGAUCACCCAUGUACCCUGGUUCU [Brourd's mod of Exclusion 4 (MOD3 of Nando's BmEX4 C.21)] (Eterna round: R97, puzzle: Brourd's mod of Exclusion 4) |  |  |  | 18.7 | 17.8 |  |
| GAUCUGACAGGAUAUACAUGAGGAUCACCCAUGUACGAGCUAGCGAAAGCUAGCUCAGGUAGAAGGGUCAGAUC [Ex3 dot plot directed v5] (puzzle: Exclusion 3) |  | 11.6 |  |  |  |  |
| GAUGAGGGAGUGAGGAUAUAUACCGGCUCACCGGAGUAGAAGGCACAUGAGGAUCACCCAUGUGACCUUAACCU [Eternabot (L2) Solution 92] (Eterna round: R97, puzzle: Brourd's mod of Exclusion 4) |  |  |  | 15.3 | 14.1 |  |
| GAUGGACAUGAGGAUCACCCAUGUAAGGAUAUUGAUUAUGGUUAUAAAUAAUUAUGGUCAAGAAGGUACUCGUC [-17.8, -14.8 kcal, A 34%] (Eterna round: R97, puzzle: Exclusion 1) |  |  |  | 114 | 147 |  |
| GAUUACUGCAAGCUUUGGAACAUGAGGAUCACCCAUGUUCGUCUUAUUGAUCUAGGUACGCUGACGUACCUAGAUCU [JL-sv1-2.30 Brourd mod] (puzzle: Sensor v3, turn-off variant 1) | 15.5 | 16.2 | 13.6 |  |  |  |
| GAUUAGGUAGGAUAUACGUAGUGAGCCAGCGAGAGCUGGUAACAUGAGGAUCACCCAUGUAGAAGGACCAUUAA [Xeorqulaus] (Eterna round: R97, puzzle: Exclusion 2) |  |  |  | 145 | 72.4 |  |
| GAUUAGUGAGGAUAUGGUAAAGAUAAGAUGAUGAAAGAACUCCAGAAGGCACAUGAGGAUCACCCAUGUAGUAG [Mat - Exclusion 4 - Mod of JL - D21] (puzzle: Exclusion 4) | 17.1 | 20.4 | 20.1 |  |  |  |
| GAUUAUGCAAGCUUUCGGGACAUGAGGAUCACCCAUGUUCGUCUUAUUGAUCUAGGUACGCUGACGUACCUAGAUCU [JL-sv1-2.33 Brourd mod] (puzzle: Sensor v3, turn-off variant 1) | 17 | 65.2 |  |  |  |  |
| GAUUAUGCGAGCUUUAGGGACAUGAGGAUCACCCAUGUUCGUCUUAUUAAUCUAGGUACGCUGACAUACCUAAAUCU [JMF 98] (puzzle: Sensor v3, turn-off variant 1) | 21.6 | 30 | 20.6 |  |  |  |
| GAUUAUGCGAGCUUUAGGGACAUGAGGAUCACCCAUGUUCGUCUUAUUAGUCUGGGUACGCUAACAUACCUAAAUCU [JMF 43] (puzzle: Sensor v3, turn-off variant 1) | 30.1 | 41.4 | 28.7 |  |  |  |
| GAUUAUGCGAGCUUUAGGGACAUGAGGAUCACCCAUGUUCGUCUUAUUGGUCUAGGUGCACUAACAUACCUAAAUCU [JMF 36] (puzzle: Sensor v3, turn-off variant 1) | 22.3 | 33.7 | 23.6 |  |  |  |
| GAUUAUGCGAGCUUUAGGGACAUGAGGAUCACCCAUGUUCGUCUUAUUGGUCUGGAUACACUAACAUACCUAAAUCU [JMF 14] (puzzle: Sensor v3, turn-off variant 1) | 19.2 | 27.9 | 21.2 |  |  |  |

| Sequence | apparent KD of MS2 coat protein [1] [nM] | apparent KD of MS2 coat protein [2] [nM] | apparent KD of MS2 coat protein [3] [nM] | apparent KD of MS2 coat protein (input ligand: FMN 200 uM) [nM] | apparent KD of MS2 coat protein (input ligand: none) [nM] | apparent KD of MS2 coat protein [4] [nM] |
| --- | --- | --- | --- | --- | --- | --- |
| GAUUGACAUGAGGAUCACCCAUGUGAGGAUAUCGGCCGGACCUUGUUAGCUUCCAUCGCGAGAAGGUACAUAGG [Exclusion 1 V34] (puzzle: Exclusion 1) |  | 16.9 |  |  |  |  |
| GAUUGACAUGAGGAUCACCCAUGUGAGGAUAUCGGCUGGACCGUGUUGGCUUGCUUUCCGAGAAGGCGCAUAGG [Exclusion 1 V50] (puzzle: Exclusion 1) | 81.7 | 36.9 | 45.9 |  |  |  |
| GAUUGAGAGCAGGAUAUCAUAGAAAUGUAUGAAUGAGAAGGGCUCACAUGAGGAUCACCCAUGUGGUCCUAGAU [JL Dibiri mod 18] (puzzle: Exclusion 6) |  | 21.9 |  |  |  |  |
| GAUUUACAUGAGGAUCACCCAUGUGAGGAUAUAUUGUUAUUUUUAAUAUUUUUUAGUGGUAGAAGGCGCGUGAU [JR_Exc1_Sub016] (Eterna round: R97, puzzle: Exclusion 1) |  |  |  | 24.2 | 26.9 |  |
| GCAAAAUAUCAGGAUAUGACUAAUUGCGUUAAGUCAGAAGGGAUAACAUGAGGAUCACCCAUGUGAUAUAGUGU [JR_Ex6_Sub030] (Eterna round: R97, puzzle: Exclusion 6) |  |  |  | 237 | 169 |  |
| GCAAGUUUUUUGUUUUUUAACAUGAGGAUCACCCAUGUAUUUUUAUAGUAUGUGUGAAUAAGAUCUCGUGGUCUUAG [JR_SV3TOV1_Sub100] (puzzle: Sensor v3, turn-off variant 1) | 73.3 | 203 | 77.2 |  |  |  |
| GCACGCAAAGGAUAUCGGAAAGAAAACAUGAGGAUCACCCAUGUAUAUAUCAAAUGGGUGCGAGAAGGUUGAGUGA [Xeleonge] (puzzle: Exclusion 5) | 192 | 60 | 94 |  |  |  |
| GCACGGAGUGUAGGAUAUUAGUGCGAUUAGCACUGAGAAGGACAUGAGGAUCACCCAUGUUCCUCAAUAAAAUACCUUCCGUGC [Eli exng1 - 040] (Eterna round: R96, puzzle: Exclusion NG 1) |  |  |  | 13.4 | 13.7 | 10 |
| GCACGGAUUGUAGGAUAUCUGUGCGAUUAGCUCAGAGAAGGACACAUGAGGAUCACCCAUGUUACCUCAAUUGGCCUUCCGUGC [Eli exng1 - 031] (Eterna round: R96, puzzle: Exclusion NG 1) |  |  |  | 128 | 116 | 70.7 |
| GCACGGUUGCUAGGAUAUCCUUGCGAUUAGCAAGGAGAAGGAGCACAUGAGGAUCACCCAUGUACCUCAAUAAUCCUUCCGUGC [Eli exng1 - 028] (Eterna round: R96, puzzle: Exclusion NG 1) |  |  |  | 12.9 | 15.6 | 13.2 |
| GCACUGCGAGGAUAUACAUGAGGAUCACCCAUGUAUCGGUAGUCAAGGUUAAUUUAAGGUAGAAGGCGCGUAUU [JR_Ex3_Sub006] (Eterna round: R97, puzzle: Exclusion 3) |  |  |  | 23.9 | 22.7 |  |
| GCACUGGCAGGAUAUACAUGAGGAUCACCCAUGUGAUCCCUUAGGUACAAAAGUACCAGUAGAAGGGCCUGUGC [Omei Ex3 Model Bachelor's Dilema v50] (Eterna round: R97, puzzle: Exclusion 3) |  |  |  | 315 | 564 |  |
| GCAGAAAGUGUAGGAUAUCUAAUAAAGCGGAAACGCAAGACAUGAGGAUCACCCAUGUGUCCGGAAGAGAAGGGCAAAAGCUGC [EXNG2 V2 c] (Eterna round: R96, puzzle: Exclusion NG 2) |  |  |  | 26.6 | 38.2 | 22.7 |
| GCAGAAUGAGUUAGGAUAUGAUGAUUUUUUUUAUAUCAGAAGGAACUUGAGGAUCACCCAAGUUAAGAUAGGGU [JR_BMEx4_Sub067] (Eterna round: R97, puzzle: Brourd's mod of Exclusion 4) |  |  |  | 89.2 | 138 |  |
| GCAGCAACUCUAAUCAACUAAACAUGAGGAUCACCCAUGUCUCAGGAUAUGGUCUGGAUUACAGGCCAGAAGGGAGAAAGCUGC [Eli exng3 - 043] (Eterna round: R96, puzzle: Exclusion NG 3) |  |  |  | 16.2 | 12.3 | 11.2 |
| GCAGCAUAGUCGGAAUACGACAUACAUGAGGAUCACCCAUGUCAGGAUAUGGUCUGGAUUACAGGCCAGAAGGGACGAAGCUGC [Eli exng3 - 006] (Eterna round: R96, puzzle: Exclusion NG 3) |  |  |  | 18.4 | 21.5 | 17.6 |
| GCAGGAUAAGUGAGGAUAUACCUAUGGAUACAUAGGUAGAAGGCACAUGAGGAUCACCCAUGUUCCUUGCCUGC [Fiskers BMX 4 - 67] (puzzle: Brourd's mod of Exclusion 4) |  | 13.2 |  |  |  |  |
